From PMC6303017, “Effects of RNA structure and salt concentration on the affinity and kinetics of interactions between pentatricopeptide repeat proteins and their RNA ligands”

Tests used:
PPR10 [1] = biological target: T1, PPR10 (UniProt B8Y6I0 96-786); assay: SPR; 150 mM NaCl; ka ~2e7 M-1s-1; EMSA: 40 mM Tris-HCl pH 7.5, 140 mM NaCl, 10% glycerol, 4 mM DTT, 0.1 mg/mL BSA, 0.5 mg/mL heparin, RNAsin, 5 pM RNA, 25 C, 30 min; SPR: 100 mM HEPES pH 7.5, 150 mM NaCl, 3 mM EDTA, 1 mM 2-mercaptoethanol, 0.005% P20; details: protein: recombinant; tags: MBP fusion, MBP cleaved off; label: 3' biotin, 6-carbon linker; unstructured
T1 sequence: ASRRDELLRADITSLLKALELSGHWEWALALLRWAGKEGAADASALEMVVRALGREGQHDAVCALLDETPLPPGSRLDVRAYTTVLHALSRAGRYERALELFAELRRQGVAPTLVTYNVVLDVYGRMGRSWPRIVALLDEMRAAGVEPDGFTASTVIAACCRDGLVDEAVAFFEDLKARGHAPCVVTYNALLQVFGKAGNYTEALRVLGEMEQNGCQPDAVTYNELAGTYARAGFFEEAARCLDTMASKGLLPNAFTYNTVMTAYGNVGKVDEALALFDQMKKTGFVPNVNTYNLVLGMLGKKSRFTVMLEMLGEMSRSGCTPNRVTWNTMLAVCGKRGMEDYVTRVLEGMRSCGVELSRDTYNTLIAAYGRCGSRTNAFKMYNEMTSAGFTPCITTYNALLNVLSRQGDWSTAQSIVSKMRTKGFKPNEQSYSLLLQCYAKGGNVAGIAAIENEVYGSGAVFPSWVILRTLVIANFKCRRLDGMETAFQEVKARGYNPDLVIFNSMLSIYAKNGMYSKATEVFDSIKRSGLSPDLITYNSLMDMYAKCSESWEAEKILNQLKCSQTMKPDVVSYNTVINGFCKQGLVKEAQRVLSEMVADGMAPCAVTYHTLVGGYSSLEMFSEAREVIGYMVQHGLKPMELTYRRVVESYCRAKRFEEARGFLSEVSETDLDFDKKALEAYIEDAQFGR

HCF152 [2] = biological target: T2, HCF152 (UniProt Q9SF38 66-778); assay: SPR; 150 mM NaCl; half-life ~2 h; KD ~30-fold lower than earlier EMSA; EMSA: 40 mM Tris-HCl pH 7.5, 140 mM NaCl, 10% glycerol, 4 mM DTT, 0.1 mg/mL BSA, 0.5 mg/mL heparin, RNAsin, 5 pM RNA, 25 C, 30 min; SPR: 100 mM HEPES pH 7.5, 150 mM NaCl, 3 mM EDTA, 1 mM 2-mercaptoethanol, 0.005% P20; details: protein: recombinant; tags: MBP fusion, MBP cleaved off; label: 3' biotin, 6-carbon linker
T2 sequence: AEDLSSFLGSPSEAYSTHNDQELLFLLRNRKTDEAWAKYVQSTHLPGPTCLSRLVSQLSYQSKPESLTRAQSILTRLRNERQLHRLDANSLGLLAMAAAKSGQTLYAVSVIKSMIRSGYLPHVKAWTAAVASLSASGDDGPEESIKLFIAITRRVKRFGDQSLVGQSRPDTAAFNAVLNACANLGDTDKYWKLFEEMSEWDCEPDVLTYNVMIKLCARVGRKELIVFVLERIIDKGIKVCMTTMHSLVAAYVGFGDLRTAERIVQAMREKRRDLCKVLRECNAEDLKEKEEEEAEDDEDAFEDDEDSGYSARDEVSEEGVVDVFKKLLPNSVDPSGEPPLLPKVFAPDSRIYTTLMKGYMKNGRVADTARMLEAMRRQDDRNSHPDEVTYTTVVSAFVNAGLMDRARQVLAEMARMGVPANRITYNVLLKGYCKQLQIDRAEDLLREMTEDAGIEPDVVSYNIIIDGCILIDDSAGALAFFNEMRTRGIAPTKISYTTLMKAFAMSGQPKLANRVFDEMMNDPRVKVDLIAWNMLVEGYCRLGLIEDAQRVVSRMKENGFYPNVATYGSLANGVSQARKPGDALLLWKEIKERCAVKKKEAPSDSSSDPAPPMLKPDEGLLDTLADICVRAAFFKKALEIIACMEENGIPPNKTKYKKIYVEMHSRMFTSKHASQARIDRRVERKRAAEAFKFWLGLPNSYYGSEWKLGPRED

HCF152 [3] = biological target: T2, HCF152; assay: filter binding; 30 min and overnight (~13 h); tighter apparent KD overnight; EMSA: 40 mM Tris-HCl pH 7.5, 140 mM NaCl, 10% glycerol, 4 mM DTT, 0.1 mg/mL BSA, 0.5 mg/mL heparin, RNAsin, 5 pM RNA, 25 C, 30 min; SPR: 100 mM HEPES pH 7.5, 150 mM NaCl, 3 mM EDTA, 1 mM 2-mercaptoethanol, 0.005% P20; details: protein: recombinant; tags: MBP fusion, MBP cleaved off; label: 5' 32P
PPR10 [4] = biological target: T1, PPR10; assay: EMSA; 0.5 mg/mL heparin, 140 mM NaCl; EMSA: 40 mM Tris-HCl pH 7.5, 140 mM NaCl, 10% glycerol, 4 mM DTT, 0.1 mg/mL BSA, 0.5 mg/mL heparin, RNAsin, 5 pM RNA, 25 C, 30 min; SPR: 100 mM HEPES pH 7.5, 150 mM NaCl, 3 mM EDTA, 1 mM 2-mercaptoethanol, 0.005% P20; details: protein: recombinant; tags: MBP fusion, MBP cleaved off; label: 5' 32P; unstructured

## GAUUGUAUCCUUAACCAUUUCUUUU (ssRNA) [atpH SPR RNA]
PPR10 [1]
  Kd: ~0.01 nM

## UGGUAGUUCGACGUGGAUUUU (ssRNA) [petB SPR RNA]
HCF152 [2]
  binding result: binds

## GGUAGUUCGACCGUGGA (ssRNA) [petB RNA (GMS/FB)]
HCF152 [3]
  binding result: binds

## AUUGUAUCCUUAACCAUUUCUUU (ssRNA) [atpH-23mer]
PPR10 [4]
  Kd: ~0.05 nM
